Earlier results on two substances are cited in paper PMC4497409.

Values joined by “and” are separate entries in the source; they are usually repeats but may differ in a detail not shown here. Equal values may be shown once.

Data set [1] concerns the target Frizzled4 CRD (Homo sapiens) (UniProt Q9ULV1). As to the kind of experiment: AlphaScreen.
For data set [2], the target named is Lrp6 P1E1P2E2 (Homo sapiens) (UniProt O75581). As to the kind of experiment: AlphaScreen.
The target of data set [3] is Frizzled4 CRD (Mus musculus) (UniProt Q61088). As to the kind of experiment: ELISA.
Frizzled4 CRD (Mus musculus), sequence (Q61088 40-161): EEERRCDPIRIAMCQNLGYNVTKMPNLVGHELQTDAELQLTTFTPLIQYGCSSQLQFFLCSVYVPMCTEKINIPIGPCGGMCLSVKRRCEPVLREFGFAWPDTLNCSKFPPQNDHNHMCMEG

Frizzled4 CRD (Homo sapiens), sequence (Q9ULV1 40-161): as the sequence (Q61088 40-161) above, with A12S, R94K, D102E, T103S counted along it
Lrp6 P1E1P2E2 (Homo sapiens), sequence (O75581 20-630): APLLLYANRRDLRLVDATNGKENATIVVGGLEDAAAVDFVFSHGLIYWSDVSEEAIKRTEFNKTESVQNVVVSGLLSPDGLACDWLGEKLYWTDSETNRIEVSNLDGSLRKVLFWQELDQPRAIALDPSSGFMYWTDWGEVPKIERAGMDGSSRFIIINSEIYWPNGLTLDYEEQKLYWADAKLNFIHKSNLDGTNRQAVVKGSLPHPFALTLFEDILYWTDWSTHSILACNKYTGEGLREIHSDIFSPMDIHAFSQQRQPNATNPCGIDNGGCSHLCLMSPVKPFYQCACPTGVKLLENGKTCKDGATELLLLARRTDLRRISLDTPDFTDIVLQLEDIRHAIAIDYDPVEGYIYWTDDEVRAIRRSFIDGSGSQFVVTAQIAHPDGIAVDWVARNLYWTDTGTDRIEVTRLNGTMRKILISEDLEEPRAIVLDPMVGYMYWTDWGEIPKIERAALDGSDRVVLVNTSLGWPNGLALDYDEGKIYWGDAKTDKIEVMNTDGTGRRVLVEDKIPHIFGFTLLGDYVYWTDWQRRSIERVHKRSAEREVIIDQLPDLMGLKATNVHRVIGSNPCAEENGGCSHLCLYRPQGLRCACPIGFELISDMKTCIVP
Norrin, sequence (P48744 25-131): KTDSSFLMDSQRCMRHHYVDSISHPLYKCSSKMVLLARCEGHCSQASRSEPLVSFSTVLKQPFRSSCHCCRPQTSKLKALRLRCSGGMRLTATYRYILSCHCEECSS

Take Norrin (from UniProt Q00604): the Kd in data set [1] was 11 nM and 5 nM; in data set [2] it was 450 nM. As for Norrin (from UniProt P48744), in data set [3], the Kd was 3.5 nM.
